Drawing on patent US20160031998A1 (CSL, published 2016), this text covers Kd for 13 molecules.

T1: soluble hG-CSFR: amino acids 25-335 of Homo sapiens G-CSFR with mutations C78A, C163S and C228S and a … (Homo sapiens, UniProt Q99062 25-335)
T1 chain: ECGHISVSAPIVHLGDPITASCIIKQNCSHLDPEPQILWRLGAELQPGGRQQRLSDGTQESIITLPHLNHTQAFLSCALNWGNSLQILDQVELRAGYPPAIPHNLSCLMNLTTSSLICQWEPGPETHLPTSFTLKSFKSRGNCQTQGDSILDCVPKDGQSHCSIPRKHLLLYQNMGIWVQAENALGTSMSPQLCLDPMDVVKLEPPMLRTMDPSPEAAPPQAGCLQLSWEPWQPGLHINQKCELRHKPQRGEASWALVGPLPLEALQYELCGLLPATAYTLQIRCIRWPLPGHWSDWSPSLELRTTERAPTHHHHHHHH

B1: C1.2G-75 (antibody, human IgG4, V domains shown)
VH: EVQLLESGGGLVQPGGSLRLSCAASGFTFSLYWMGWVRQAPGKGLEWVSSISSSGGVTPYADSVKGRFTISRDNSKNTLYLQMNSLRAEDTAVYYCAKLGELGWFDPWGQGTLVTVSS
VL: DIQMTQSPSSLSASVGDRVTITCRASQGISSYLNWYQQKPGKAPKLLIYYASNLQNGVPSRFSGSGSGTDFTLTISSLQPEDFATYYCEESMNYPLTFGGGTKVEIK
notes: HCDR3 wt (VH of C1.2G); also called antibody 75
B2: C1.2G-973 (antibody, human IgG4, V domains shown)
VH: EVQLLESGGGLVQPGGSLRLSCAASGFTFSLYWMGWVRQAPGKGLEWVSSISSSGGVTPYADSVKGRFTISRDNSKNTLYLQMNSLRAEDTAVYYCAKLGELGQMVYWGQGTLVTVSS
VL: DIQMTQSPSSLSASVGDRVTITCRASQGISSYLNWYQQKPGKAPKLLIYYASNLQNGVPSRFSGSGSGTDFTLTISSLQPEDFATYYCQQSFKYPMTFGGGTKVEIK
notes: also called antibody 973
B3: C1.2G-984 (antibody, human IgG4, V domains shown)
VH: EVQLLESGGGLVQPGGSLRLSCAASGFTFSLYWMGWVRQAPGKGLEWVSSISSSGGVTPYADSVKGRFTISRDNSKNTLYLQMNSLRAEDTAVYYCAKLGELGMMQSWGQGTLVTVSS
VL: DIQMTQSPSSLSASVGDRVTITCRASQGISSYLNWYQQKPGKAPKLLIYYASNLQNGVPSRFSGSGSGTDFTLTISSLQPEDFATYYCQQSIEYPAHFGGGTKVEIK
notes: also called antibody 984
B4: C1.2G-43 (antibody, human IgG4, V domains shown)
VH: EVQLLESGGGLVQPGGSLRLSCAASGFTFSLYWMGWVRQAPGKGLEWVSSISSSGGVTPYADSVKGRFTISRDNSKNTLYLQMNSLRAEDTAVYYCAKLGELGQFMRWGQGTLVTVSS
VL: DIQMTQSPSSLSASVGDRVTITCRASQGISSYLNWYQQKPGKAPKLLIYYASNLQNGVPSRFSGSGSGTDFTLTISSLQPEDFATYYCQQSIGYPGSFGGGTKVEIK
notes: also called antibody 43
B5: C1.2G-999 (antibody, human IgG4, V domains shown)
VH: EVQLLESGGGLVQPGGSLRLSCAASGFTFSLYWMGWVRQAPGKGLEWVSSISSSGGVTPYADSVKGRFTISRDNSKNTLYLQMNSLRAEDTAVYYCAKLGELGMFHKWGQGTLVTVSS
VL: DIQMTQSPSSLSASVGDRVTITCRASQGISSYLNWYQQKPGKAPKLLIYYASNLQNGVPSRFSGSGSGTDFTLTISSLQPEDFATYYCQQSWEYAMFFGGGTKVEIK
notes: also called antibody 999
B6: C1.2G-996 (antibody, human IgG4, V domains shown)
VH: EVQLLESGGGLVQPGGSLRLSCAASGFTFSLYWMGWVRQAPGKGLEWVSSISSSGGVTPYADSVKGRFTISRDNSKNTLYLQMNSLRAEDTAVYYCAKLGELGQYMGWGQGTLVTVSS
VL: DIQMTQSPSSLSASVGDRVTITCRASQGISSYLNWYQQKPGKAPKLLIYYASNLQNGVPSRFSGSGSGTDFTLTISSLQPEDFATYYCQQSMWMPIFFGGGTKVEIK
notes: also called antibody 996
B7: C1.2G-977 (antibody, human IgG4, V domains shown)
VH: EVQLLESGGGLVQPGGSLRLSCAASGFTFSLYWMGWVRQAPGKGLEWVSSISSSGGVTPYADSVKGRFTISRDNSKNTLYLQMNSLRAEDTAVYYCAKLGELGEIREWGQGTLVTVSS
VL: DIQMTQSPSSLSASVGDRVTITCRASQGISSYLNWYQQKPGKAPKLLIYYASNLQNGVPSRFSGSGSGTDFTLTISSLQPEDFATYYCQQSWVYHLPFGGGTKVEIK
notes: also called antibody 977
B8: C1.2G-975 (antibody, human IgG4, V domains shown)
VH: EVQLLESGGGLVQPGGSLRLSCAASGFTFSLYWMGWVRQAPGKGLEWVSSISSSGGVTPYADSVKGRFTISRDNSKNTLYLQMNSLRAEDTAVYYCAKLGELGQSMLWGQGTLVTVSS
VL: DIQMTQSPSSLSASVGDRVTITCRASQGISSYLNWYQQKPGKAPKLLIYYASNLQNGVPSRFSGSGSGTDFTLTISSLQPEDFATYYCQQSWQIKLKFGGGTKVEIK
notes: also called antibody 975
B9: C1.2G-852 (antibody, human IgG4, V domains shown)
VH: EVQLLESGGGLVQPGGSLRLSCAASGFTFSLYWMGWVRQAPGKGLEWVSSISSSGGVTPYADSVKGRFTISRDNSKNTLYLQMNSLRAEDTAVYYCAKLGELGHSLAWGQGTLVTVSS
VL: DIQMTQSPSSLSASVGDRVTITCRASQGISSYLNWYQQKPGKAPKLLIYYASNLQNGVPSRFSGSGSGTDFTLTISSLQPEDFATYYCQQSYSTPLTFGGGTKVEIK
notes: LCDR3 wt (VL of C1.2G); also called antibody 852
B10: C1.2G-877 (antibody, human IgG4, V domains shown)
VH: EVQLLESGGGLVQPGGSLRLSCAASGFTFSLYWMGWVRQAPGKGLEWVSSISSSGGVTPYADSVKGRFTISRDNSKNTLYLQMNSLRAEDTAVYYCAKLGELGWFDPWGQGTLVTVSS
VL: DIQMTQSPSSLSASVGDRVTITCRASQGISSYLNWYQQKPGKAPKLLIYYASNLQNGVPSRFSGSGSGTDFTLTISSLQPEDFATYYCQQSFRYPFYFGGGTKVEIK
notes: HCDR3 wt (VH of C1.2G); also called antibody 877
B11: C1.2G-814 (antibody, human IgG4, V domains shown)
VH: EVQLLESGGGLVQPGGSLRLSCAASGFTFSLYWMGWVRQAPGKGLEWVSSISSSGGVTPYADSVKGRFTISRDNSKNTLYLQMNSLRAEDTAVYYCAKLGELGWFDPWGQGTLVTVSS
VL: DIQMTQSPSSLSASVGDRVTITCRASQGISSYLNWYQQKPGKAPKLLIYYASNLQNGVPSRFSGSGSGTDFTLTISSLQPEDFATYYCSQSMEYPLTFGGGTKVEIK
notes: HCDR3 wt (VH of C1.2G); also called antibody 814
B12: C1.2G-870 (antibody, human IgG4, V domains shown)
VH: EVQLLESGGGLVQPGGSLRLSCAASGFTFSLYWMGWVRQAPGKGLEWVSSISSSGGVTPYADSVKGRFTISRDNSKNTLYLQMNSLRAEDTAVYYCAKLGELGWFDPWGQGTLVTVSS
VL: DIQMTQSPSSLSASVGDRVTITCRASQGISSYLNWYQQKPGKAPKLLIYYASNLQNGVPSRFSGSGSGTDFTLTISSLQPEDFATYYCQQSWMYHKIFGGGTKVEIK
notes: HCDR3 wt (VH of C1.2G); also called antibody 870
B13: C1.2G-94 (antibody, human IgG4, V domains shown)
VH: EVQLLESGGGLVQPGGSLRLSCAASGFTFSLYWMGWVRQAPGKGLEWVSSISSSGGVTPYADSVKGRFTISRDNSKNTLYLQMNSLRAEDTAVYYCAKLGELGWFDPWGQGTLVTVSS
VL: DIQMTQSPSSLSASVGDRVTITCRASQGISSYLNWYQQKPGKAPKLLIYYASNLQNGVPSRFSGSGSGTDFTLTISSLQPEDFATYYCQQSWVYPAWFGGGTKVEIK
notes: HCDR3 wt (VH of C1.2G); also called antibody 94

The assay concerns the target T1, soluble hG-CSFR: amino acids 25-335 of …. The experiment in a line: SPR (Biacore), mAb captured by anti-human IgG, soluble hG-CSFR injected. Here is the method: Soluble hG-CSFR was injected for 5 minutes and dissociation was monitored for 30 minutes. Responses from a reference flow cell (in which mAb was not captured, but otherwise treated identically), were subtracted. The responses from a blank injection were then subtracted from the resultant sensorgrams.
The final corrected responses were fitted using non-linear regression to a model describing 1:1 kinetics, including a term for mass transport limitation. The Rmax value was fitted locally, to account for slight deviations in the level of mAb captured. Association rate (ka), dissociation rate (kd) and equilibrium dissociation constant (KD) were determined.
For orientation: In SPR one partner is held on a chip, and binding of the other changes the refractive index at the surface.
In turn, B1 had a Kd of 0.211 nM.

In turn, B2 registered a Kd of 0.23 nM.

Molecule B3 came in with a Kd of 0.25 nM.

In turn, B4 yielded a Kd of 0.336 nM.

In the case of B5, the Kd is 0.356 nM.

The molecule B6 showed a Kd of 0.336 nM.

The molecule B7 registered a Kd of 0.246 nM.

Take B8: the affinity, expressed as Kd, was 0.209 nM.

B9 showed a Kd of 0.292 nM.

Consider B10, for which the Kd turned out to be 0.508 nM.

Turning to B11, the Kd turned out to be 0.221 nM.

The molecule B12 yielded a Kd of 0.367 nM.

On to B13, for which binding was characterised by a dissociation constant (Kd) of 0.189 nM.

In general, Kd refers to the constant that tells how readily two partners part at equilibrium. Higher therefore signals a looser complex.
